T1: UCH37•RPN13^DEUBAD (UniProt Q16186 253-407)
T1 chain 1: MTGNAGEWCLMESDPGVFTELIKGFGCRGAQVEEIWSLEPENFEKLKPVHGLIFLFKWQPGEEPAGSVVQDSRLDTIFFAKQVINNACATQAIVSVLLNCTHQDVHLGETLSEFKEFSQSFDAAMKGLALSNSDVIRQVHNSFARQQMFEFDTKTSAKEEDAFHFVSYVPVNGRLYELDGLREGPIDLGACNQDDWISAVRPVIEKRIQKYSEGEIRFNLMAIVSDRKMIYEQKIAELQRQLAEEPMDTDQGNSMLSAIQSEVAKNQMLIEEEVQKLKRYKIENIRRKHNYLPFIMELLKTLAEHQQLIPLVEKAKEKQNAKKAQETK
T1 chain 2: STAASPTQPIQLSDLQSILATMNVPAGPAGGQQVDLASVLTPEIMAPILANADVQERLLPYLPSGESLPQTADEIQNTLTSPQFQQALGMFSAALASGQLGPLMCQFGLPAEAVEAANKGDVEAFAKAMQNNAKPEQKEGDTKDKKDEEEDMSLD

T2: UCH37
T2 chain: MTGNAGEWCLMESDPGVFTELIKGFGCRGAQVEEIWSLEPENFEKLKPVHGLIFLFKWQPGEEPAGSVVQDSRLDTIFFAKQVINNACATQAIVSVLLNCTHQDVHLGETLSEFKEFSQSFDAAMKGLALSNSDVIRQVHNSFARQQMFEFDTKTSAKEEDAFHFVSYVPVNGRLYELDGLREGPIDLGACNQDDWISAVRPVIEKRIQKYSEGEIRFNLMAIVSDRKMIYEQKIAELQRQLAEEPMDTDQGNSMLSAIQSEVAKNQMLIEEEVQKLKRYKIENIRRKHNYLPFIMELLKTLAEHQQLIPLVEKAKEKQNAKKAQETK

B1: Nb-cS1 (His-tagged) (VHH)
VHH: QVQLQESGGGLVQAGGSLRLSCAASGYISRPRTMGWYRQAPGKEREFVAIISNGAITNYADSVKGRFTISRDNAKNTVYLQMNSLKPEDTAVYYCAAGRNIWHAYWGQGTQVTVSS
B2: Nb-ncS1 (His-tagged) (VHH)
VHH: RVQLQESGGGLVQAGGSLRLSCAASGYIFRSYRMGWYRQAPGKERELVAAIGLGGNTYYADSVKGRFTISRDNAKNTVYQQMNSLKPEDTAVYYCAALYGKPPAFSPFPYWGQGTQVTVSS
B3: Nb-v1 (recombinant) (VHH)
VHH: QVQLQESGGGLVQAGGSLRLSCAASGYIFRSYRMGWYRQAPGKERELVAAIGLGGNTYYADSVKGRFTISRDNAKNTVYLQMNSLKPEDTAVYYCAALHGKPPAFSPFAYWGQGTQVTVSS

Tests used:
[1] = target: T1, UCH37•RPN13^DEUBAD; test: MST
[2] = target: T2, UCH37; test: SPR

| Binder | Kd [1] [nM] | koff [2] [s⁻¹] |
| --- | --- | --- |
| B1 | 199 | – |
| B2 | – | 3.9e-05 |
| B3 | – | 0.00013 |
